Here are results for one substance from patent publication US20100184651A1, “TARGETED FUSION PROTEINS FOR CANCER THERAPY” (Dabur Pharma Limited, priority 2005, published 2010).

Data set [1] addresses T1, VPAC 1 receptors expressed on A549 cells (Homo sapiens, UniProt P32241).
T1 construct: the receptors were overexpressed in the A549 cell line; endogenous in cells; host or cells: A549 human lung carcinoma cells (acetone-fixed on slides)
T1 sequence (P32241 31-457): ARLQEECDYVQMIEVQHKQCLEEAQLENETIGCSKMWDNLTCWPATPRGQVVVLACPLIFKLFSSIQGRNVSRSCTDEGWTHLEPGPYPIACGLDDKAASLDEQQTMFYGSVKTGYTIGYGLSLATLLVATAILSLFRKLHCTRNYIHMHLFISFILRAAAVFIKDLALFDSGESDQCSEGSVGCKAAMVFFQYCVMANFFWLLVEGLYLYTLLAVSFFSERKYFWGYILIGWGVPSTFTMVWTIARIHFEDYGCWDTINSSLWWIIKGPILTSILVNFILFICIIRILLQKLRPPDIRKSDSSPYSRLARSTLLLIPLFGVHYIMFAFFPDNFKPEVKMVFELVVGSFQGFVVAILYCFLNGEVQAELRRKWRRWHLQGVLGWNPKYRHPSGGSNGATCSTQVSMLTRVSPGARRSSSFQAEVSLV
Nature of the data set: Immunocytochemical staining for cell surface receptors on A549 cells. The data set is classed as binding. Conditions: A549 cells pre-treated, then anti-VPAC-1 immunostaining. The procedure:
Similarly, when, the cells were treated with fusion protein and immuno-stained with anti-BID. […] A similar observation was made when A549 cells were pre-treated with VIP antagonist, VIP (10-28) followed by fusion protein and immunostaining with anti-BID (FIG. 15e).
Cultured (A549 human lung carcinoma) cells were detached with trypsin/EDTA and pelleted by low-speed centrifugation. The cells were resuspended in PBS. Cell suspensions were coated onto poly-L-lysine coated glass slides, dried and then fixed for 10 min in acetone at −20° C. After drying for 2 h, slides were rinsed in PBS and then treated for 5 min with water/H2O2 in order to block endogenous peroxidase. Slides were again rinsed again in PBS and treated with normal rabbit and goat serum to block background staining. Slides were then incubated with antagonist, VIP(10-28) and/or fusion protein for 1 hr each. Slides were again washed with PBS and incubated with rabbit-anti-BID antibody (dilution 1:1000) or goat anti-VPAC 1 antibody (dilution 1:1000) for 1 h. Slides were again washed in PBS and incubated with […] IgG peroxidase labelled antibodies for anti-BID and anti-VPAC 1 primary antibodies respectively, for 1 h followed by addition of the 3,3′-diaminobenzidine-tetrachloride (DAB) substrate and hydrogen peroxide in PBS. […]

In data set [2] the target is T2, VPAC-1 receptors (Homo sapiens, UniProt P32241).
T2 construct: endogenous in cells; host or cells: HT29 colon carcinoma cells
T2 sequence (P32241 31-457): T1 sequence (P32241 31-457)
Nature of the data set: Receptor targeting: competition with VIP (10-28) antagonist, MTT assay in HT29 cells. To be noted: 24 h. It is filed as cell-based. The procedure: To further confirm the receptor mediated targeting of the protein, HT29 cells were pre-incubated with varying concentrations of VIP antagonist, VIP (10-28) peptide [Gozes I., et al., Cell Mol. Neurobiol., 1995, 15, 675] for 30 minutes followed by treatment with 10 μM of fusion protein. […] Similar, observation was made when the cells were treated with 5 μM of fusion protein, although this time the receptors were saturated by 25 μM concentration of the antagonist (FIG. 14b).
Cells were seeded in 96-well microplates, followed by the addition of various concentrations of the VIP antagonist VIP (10-28) Fragment for 30 minutes, followed by the addition of fusion protein at a fixed concentration. VIP (10-28) Fragment was allowed to remain in culture wells for whole of the experiment. After a 24-hour incubation, the MTT assay was performed as above.

In the case of “VIP (10-28) peptide: VIP antagonist, VIP (10-28) peptide (YTRLRKQMAVKKYLNSILN)”, in data set [1], the “availability of VPAC-1 receptors to anti VPAC-1 after pre-treatment” value is “significant loss in the immunostained cell population”. Besides, the “concentration of antagonist giving complete loss of cytotoxicity of fusion protein” value in data set [2] (HT29 pre-incubated 30 minutes with antagonist, then 10 μM of fusion protein) was 100 µM. Also, in data set [2] (HT29 pre-incubated with antagonist, then 5 μM of fusion protein), the “concentration of antagonist at which the receptors were saturated (loss of cytotoxicity)” value was determined as 25 µM.
